Test [1] deals with mouse FcRn (mouse) (UniProt Q61559). The experiment in a line: SPR, FcRn coated on CM5 chip, antibody flowed at pH 6.0. On the technique in general: SPR reads the build-up and loss of mass on a sensor chip optically.
Test [2] deals with murine FcγRIV, soluble form (mouse). The test is described as follows: SPR, equilibrium KD.
For test [3], the target named is murine FcγRI extracellular domain with C-terminal 6×His-tag (mouse) (UniProt P26151). The test is described as follows: SPR, equilibrium KD.
Chain of UniProt P26151 (P26151 other isoform, or with tags, fused parts or gaps): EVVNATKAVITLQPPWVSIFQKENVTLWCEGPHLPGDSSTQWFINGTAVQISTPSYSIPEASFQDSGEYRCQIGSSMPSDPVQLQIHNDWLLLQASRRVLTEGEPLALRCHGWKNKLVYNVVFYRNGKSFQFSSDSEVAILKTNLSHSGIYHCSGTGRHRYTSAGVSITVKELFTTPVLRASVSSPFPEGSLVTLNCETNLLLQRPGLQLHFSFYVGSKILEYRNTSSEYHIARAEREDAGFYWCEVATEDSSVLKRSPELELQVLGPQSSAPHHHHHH
For test [4], the target named is murine FcγRIIB, soluble form (mouse) (UniProt P08101). The experiment in a line: SPR, equilibrium KD.
Chain of UniProt P08101 (P08101 30-207 limits assumed): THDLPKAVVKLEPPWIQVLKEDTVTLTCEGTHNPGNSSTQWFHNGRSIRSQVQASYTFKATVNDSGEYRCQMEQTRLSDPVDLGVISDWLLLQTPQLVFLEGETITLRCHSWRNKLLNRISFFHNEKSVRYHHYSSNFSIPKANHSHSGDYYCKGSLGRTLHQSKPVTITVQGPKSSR
Test [5] deals with murine FcγRIII, soluble form (mouse) (UniProt P08508). The test is described as follows: SPR, equilibrium KD.
Chain of UniProt P08508 (P08508 31-215 limits assumed): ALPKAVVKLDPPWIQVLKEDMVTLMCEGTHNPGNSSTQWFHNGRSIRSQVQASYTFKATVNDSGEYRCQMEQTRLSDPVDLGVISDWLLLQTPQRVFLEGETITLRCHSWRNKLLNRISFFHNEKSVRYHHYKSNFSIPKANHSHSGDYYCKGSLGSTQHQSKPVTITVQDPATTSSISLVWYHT

Chain of UniProt Q61559 (Q61559 22-297 limits assumed): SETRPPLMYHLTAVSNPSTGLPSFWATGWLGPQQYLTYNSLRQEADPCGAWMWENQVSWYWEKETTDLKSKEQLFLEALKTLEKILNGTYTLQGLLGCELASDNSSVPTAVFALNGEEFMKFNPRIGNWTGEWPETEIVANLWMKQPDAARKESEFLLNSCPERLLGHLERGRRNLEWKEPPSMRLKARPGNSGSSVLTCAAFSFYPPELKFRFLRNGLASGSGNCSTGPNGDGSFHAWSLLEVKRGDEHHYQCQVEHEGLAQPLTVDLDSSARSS
Chain of mouse anti-mouse CTLA-4 antibody 9D9, mouse IgG2a isotype (P01863 whole entry): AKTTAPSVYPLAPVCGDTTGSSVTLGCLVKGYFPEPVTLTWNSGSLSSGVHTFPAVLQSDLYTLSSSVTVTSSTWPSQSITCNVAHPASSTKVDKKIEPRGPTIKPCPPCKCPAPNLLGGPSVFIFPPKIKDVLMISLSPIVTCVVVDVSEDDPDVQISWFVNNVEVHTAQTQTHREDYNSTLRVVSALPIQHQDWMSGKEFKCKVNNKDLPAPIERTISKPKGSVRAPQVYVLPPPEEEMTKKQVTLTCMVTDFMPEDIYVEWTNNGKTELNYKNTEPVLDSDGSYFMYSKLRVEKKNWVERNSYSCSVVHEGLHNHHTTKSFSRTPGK

What is called Kd is the free concentration of one partner at which half of the binding sites on the other are occupied at equilibrium, for simple one-to-one binding. Read a high Kd as a looser complex. For “mouse anti-mouse CTLA-4 antibody 9D9, mouse IgG2a isotype”, the Kd in test [1] was determined as 13.5 nM; in test [2] it was 29.4 nM; in test [3] it was 32.7 nM; in test [4], 1410 nM; in test [5], 1500 nM.

“mouse anti-mouse CTLA-4 antibody 9D9, mouse IgG1 isotype containing a D265A mutation (from UniProt P01868 1-324)” yielded a Kd in test [1] of 24.6 nM. This lies in the double-digit nanomolar range.

“mouse anti-mouse CTLA-4 antibody 9D9, mouse IgG1 isotype”: the Kd in test [1] was determined as 22.4 nM; in test [4], 479 nM; in test [5] it was 1880 nM.

Take “mouse anti-mouse CTLA-4 antibody 9D9, mouse IgG2b isotype (original isotype, derived from the hybridoma)”: the Kd in test [1] turned out to be 19.7 nM; in test [2], 56.3 nM; in test [4] it was 748 nM; in test [5], 2440 nM.
